US11306156

Key:
[1] = molecular target: tissue factor (TF) antigen (UniProt P13726); assay: SPR, Fab captured on anti-penta-His, TF as analyte, 1:1 fit; batch C
[2] = molecular target: tissue factor (TF) antigen (UniProt P13726); assay: SPR, Fab captured on anti-penta-His, TF as analyte; against wild-type D3H44 Fab; batch C
[3] = molecular target: tissue factor (TF) antigen (UniProt P13726); assay: SPR; log change of median KD against wild-type D3H44 Fab
[4] = molecular target: tissue factor (TF) antigen (UniProt P13726); assay: SPR, Fab captured by anti-penta-His, TF injected, 1:1 fit
[5] = molecular target: D3H44 light chain Q124E_L135W_Q160E_T180E; assay: LCCA, SPR tag readout, L1:L2 DNA 1:3 normalized to 1:1; competitor m23
[6] = molecular target: D3H44 light chain F116A_Q124R_L135V_T178R; assay: LCCA, SPR tag readout, L1:L2 DNA 1:3 normalized to 1:1; competitor m24
[7] = molecular target: D3H44 light chain F116A_Q124R_L135V; assay: as above
[8] = molecular target: D3H44 light chain Q124E_L135W_Q160E_T180E; assay: LCCA, SPR tag readout, L1:L2 DNA 1:3 normalized to 1:1; competitor m25
[9] = molecular target: D3H44 light chain Q124E_L135W_Q160E_T180E; assay: LCCA, SPR tag readout, L1:L2 DNA 1:9 normalized to 1:1; competitor m23
[10] = molecular target: D3H44 light chain F116A_Q124R_L135V_T178R; assay: LCCA, SPR tag readout, L1:L2 DNA 1:9 normalized to 1:1; competitor m24
[11] = molecular target: D3H44 light chain F116A_Q124R_L135V; assay: as above
[12] = molecular target: D3H44 light chain Q124E_L135W_Q160E_T180E; assay: LCCA, SPR tag readout, L1:L2 DNA 1:9 normalized to 1:1; competitor m25
[13] = molecular target: D3H44 light chain T178R with N-terminal HA or FLAG tag; assay: LCCA (SPR tag readout), L1:L2 DNA 1:3, normalized to 1:1; competing light chain m13
[14] = molecular target: tissue factor (TF) antigen (UniProt P13726); assay: SPR (ProteOn XPR36), His-tagged Fab captured on anti-penta His, TF as analyte, 1:1 fit; batch C (+)
[15] = molecular target: tissue factor (TF) antigen (UniProt P13726); assay: SPR (ProteOn XPR36), His-tagged Fab captured on anti-penta His, TF as analyte; against wild-type D3H44 Fab; batch C (+)
[16] = molecular target: tissue factor (TF) antigen (UniProt P13726); assay: SPR, against wild-type D3H44 Fab
[17] = molecular target: tissue factor (TF) antigen (UniProt P13726); assay: SPR (ProteOn XPR36), Fab captured on anti-penta-His, TF injected, 1:1 fit
[18] = molecular target: tissue factor (TF) antigen (UniProt P13726); assay: SPR as for KD; reference: wild-type D3H44 Fab
[19] = molecular target: tissue factor (TF) antigen (UniProt P13726); assay: SPR, ProteOn XPR36; His-tagged Fab captured on anti-penta-His, TF injected; 1:1 fit
[20] = molecular target: tissue factor (TF) antigen (UniProt P13726); assay: SPR (ProteOn), against wild-type D3H44 Fab; estimated value taken from the Fab differing only in L chain tag
[21] = molecular target: tissue factor (TF) antigen (UniProt P13726); assay: SPR (ProteOn), Fab captured by anti-penta-His, TF as analyte, 1:1 fit; estimated value taken from the Fab differing only in L chain tag

## D3H44 Fab heterodimer, H1 S186R / L1 S131E (H1L1 Fab of LCCA Set # 9981 and 9985)
[1]
  Kd: 120 pM
[2]
  change in median KD compared to wild type, -(log(KD design)-log(KD wt)): 0.1

## H1L1 Fab heterodimer of LCCA sets 9574 and 9573 (D3H44 Fab, H1 L143A_Q179K, L1 Q124E_V133Y_T180E)
[3]
  Change in median values of KD of h1l1 Fab heterodimer compared to wild type (-(log(KD design)-log(KD wt))): -0.23 log units
[4]
  Kd: 270 pM

## D3H44 Fab heterodimer, H1 S186R / L1 Q124E_Q160E_T178E (H1L1 Fab of LCCA Set # 9867 and 9868)
[1]
  Kd: 140 pM
[2]
  change in median KD compared to wild type, -(log(KD design)-log(KD wt)): 0.06

## D3H44 Fab heavy chain A139W_L143E_K145T_Q179E
[5]
  H1L1:H1L2 normalized median ratio: 2%
  H2L2:H2L1 normalized median ratio: 2%
[6]
  H1L1:H1L2 normalized median ratio: 98%
  H1L1:H1L2 normalized median scalar value ln(r1/f1): 3.79
  H2L2:H2L1 normalized median ratio: 98%
[7]
  H1L1:H1L2 normalized median ratio: 97%
  H1L1:H1L2 normalized median scalar value ln(r1/f1): 3.66
  H2L2:H2L1 normalized median ratio: 97%
[8]
  H1L1:H1L2 normalized median ratio: 3%
  H2L2:H2L1 normalized median ratio: 3%
[9]
  H1L1:H1L2 normalized median ratio: 3%
  H2L2:H2L1 normalized median ratio: 3%
[10]
  H1L1:H1L2 normalized median ratio: 97%
  H1L1:H1L2 normalized median scalar value ln(r1/f1): 3.38
  H2L2:H2L1 normalized median ratio: 97%
[11]
  H1L1:H1L2 normalized median ratio: 95%
  H1L1:H1L2 normalized median scalar value ln(r1/f1): 2.96
  H2L2:H2L1 normalized median ratio: 95%
[12]
  H1L1:H1L2 normalized median ratio: 5%
  H2L2:H2L1 normalized median ratio: 5%

## H1L1 Fab heterodimer of LCCA sets 9721, 9720, 9723, 9722, 9725, 9716, 9712 and 9708 (D3H44 Fab, H1 L143E_K145T_S188L, L1 Q124R_Q160K_T178R)
[3]
  Change in median values of KD of h1l1 Fab heterodimer compared to wild type (-(log(KD design)-log(KD wt))): -0.19 log units
[4]
  Kd: 240 pM

## D3H44 Fab heavy chain L143D_K145T_Q179E with C-terminal ABD2-His6 tag
[13]
  H1L1:H1L2 normalized median ratio: 79%
  H1L1:H1L2 normalized median scalar value ln(r1/f1): 1.31

## H1L1 Fab heterodimer of LCCA sets 9078, 9077 and 9076 (D3H44 Fab, H1 H172T_Q179K, L1 Q124E_N137K_Q160E_S174R_T180E)
[3]
  Change in median values of KD of h1l1 Fab heterodimer compared to wild type (-(log(KD design)-log(KD wt))): 0.01 log units
[4]
  Kd: 150 pM

## D3H44 Fab heavy chain Q179K
[5]
  H2L2:H2L1 normalized median ratio: 88%
[6]
  H2L2:H2L1 normalized median ratio: 12%
[7]
  H2L2:H2L1 normalized median ratio: 23%
[8]
  H2L2:H2L1 normalized median ratio: 77%
[9]
  H2L2:H2L1 normalized median ratio: 87%
[10]
  H2L2:H2L1 normalized median ratio: 13%
[11]
  H2L2:H2L1 normalized median ratio: 20%
[12]
  H2L2:H2L1 normalized median ratio: 80%

## D3H44 Fab heterodimer, H1 Q179R / L1 S131E (H1L1 Fab of LCCA Set # 9980)
[1]
  Kd: 160 pM
[2]
  change in median KD compared to wild type, -(log(KD design)-log(KD wt)): 0

## D3H44 Fab heterodimer, H1 L143E_K145T_P175C_Q179E / L1 Q124R_S162C_T178R (H1L1 Fab of LCCA Set # 9613)
[14]
  Kd: 120 pM
[15]
  Change in median values of KD of h1|1 Fab heterodimer compared to wild type (-(log(KD design)-log(KD wt))): 0.12

## D3H44 Fab heterodimer, H1 S186R / L1 Q124E_T178E_T180E (H1L1 Fab of LCCA Set # 9889 and 9890)
[1]
  Kd: 50 pM
[2]
  change in median KD compared to wild type, -(log(KD design)-log(KD wt)): 0.49

## H1L1 Fab heterodimer of LCCA Set # 9074 (D3H44 Fab; H1 H172R_Q179K, L1 Q124E_Q160E_T180E)
[16]
  Change in median values of KD of h1l1 Fab heterodimer compared to wild type (-(log(KD design)-log(KD wt))): -0.01
[17]
  Kd: 160 pM

## D3H44 Fab heterodimer, H1 Q39E_L143E_K145T / L1 Q38R_Q124R_Q160K_T178R (H1L1 Fab of LCCA Set # 9817)
[14]
  Kd: 180 pM
[15]
  Change in median values of KD of h1|1 Fab heterodimer compared to wild type (-(log(KD design)-log(KD wt))): -0.05

## D3H44 Fab heterodimer, H1 S186R / L1 Q38E_Q124E_Q160E_T180E (H1L1 Fab of LCCA Set # 9905)
[14]
  Kd: 100 pM
[15]
  Change in median values of KD of h1|1 Fab heterodimer compared to wild type (-(log(KD design)-log(KD wt))): 0.2

## D3H44 Fab heterodimer, H1L1 of LCCA Sets # 9692, 9696, 9688, 9702 and 9700 (H1 L143E_K145T_Q179E_S188L; L1 Q124R_T178R)
[18]
  change in median KD compared to wild type, -(log(KD design)-log(KD wt)): -0.34
[19]
  Kd: 340 pM

## H1L1 Fab heterodimer of LCCA Set # 9073 (D3H44 Fab; H1 F174V, L1 S131T_S176F_T178Y)
[16]
  Change in median values of KD of h1l1 Fab heterodimer compared to wild type (-(log(KD design)-log(KD wt))): 0.04
[17]
  Kd: 140 pM

## H1L1 Fab heterodimer of LCCA Set # 9569 (D3H44 Fab; H1 L124W_L143F, L1 V133A_S176T_T178L)
[16]
  Change in median values of KD of h1l1 Fab heterodimer compared to wild type (-(log(KD design)-log(KD wt))): -0.28
[17]
  Kd: 300 pM

## D3H44 Fab heterodimer, H1L1 of LCCA set 9131 (H: L124E_K145M_Q179E; L: S131K_V133G_S176R)
[20]
  Change in KD with respect to wild type (-(log(KD design) - log(KD wt))): 0.02
[21]
  Kd: 150 pM

## D3H44 Fab heterodimer, H1L1 of LCCA set 9683 (H: L143E_K145T_Q179E; L: T178R)
[20]
  Change in KD with respect to wild type (-(log(KD design) - log(KD wt))): -0.28
[21]
  Kd: 300 pM

## D3H44 Fab heterodimer, H1L1 of LCCA set 9651 (H: L143E_K145T_Q179E; L: Q124R_Q160K_T178R)
[20]
  Change in KD with respect to wild type (-(log(KD design) - log(KD wt))): 0.02
[21]
  Kd: 150 pM

## D3H44 Fab heterodimer, H1 Q39R_D146G_Q179K / L1 Q38E_Q124E_Q160E_T180E (H1L1 Fab of LCCA Set # 9822)
[14]
  Kd: 110 pM
[15]
  Change in median values of KD of h1|1 Fab heterodimer compared to wild type (-(log(KD design)-log(KD wt))): 0.17

## D3H44 Fab heavy chain A139G_Q179K_V190A
[5]
  H1L1:H1L2 normalized median ratio: 87%
  H1L1:H1L2 normalized median scalar value ln(r1/f1): 1.88
[6]
  H1L1:H1L2 normalized median ratio: 13%
[7]
  H1L1:H1L2 normalized median ratio: 15%
[8]
  H1L1:H1L2 normalized median ratio: 85%
  H1L1:H1L2 normalized median scalar value ln(r1/f1): 1.71
[9]
  H1L1:H1L2 normalized median ratio: 86%
  H1L1:H1L2 normalized median scalar value ln(r1/f1): 1.85
[10]
  H1L1:H1L2 normalized median ratio: 14%
[11]
  H1L1:H1L2 normalized median ratio: 9%
[12]
  H1L1:H1L2 normalized median ratio: 91%
  H1L1:H1L2 normalized median scalar value ln(r1/f1): 2.31

## D3H44 Fab heterodimer, H1L1 of LCCA set 9645 (H: L143E_K145T_Q179E; L: Q124K_T178R)
[20]
  Change in KD with respect to wild type (-(log(KD design) - log(KD wt))): 0.05
[21]
  Kd: 140 pM

## H1L1 Fab heterodimer of LCCA set 9058 (D3H44 Fab, H1 A139W_L143E_K145T_Q179E, L1 F116A_Q124R_L135V)
[3]
  Change in median values of KD of h1l1 Fab heterodimer compared to wild type (-(log(KD design)-log(KD wt))): 0.12 log units
[4]
  Kd: 120 pM

## D3H44 Fab heterodimer, H1L1 of LCCA set 9657 (H: L143E_K145T_Q179E; L: Q124R_T178K)
[20]
  Change in KD with respect to wild type (-(log(KD design) - log(KD wt))): -0.08
[21]
  Kd: 190 pM

## D3H44 Fab heterodimer, H1 S186K / L1 Q124E_T178E (H1L1 Fab of LCCA Set # 9850 and 9849)
[1]
  Kd: 150 pM
[2]
  change in median KD compared to wild type, -(log(KD design)-log(KD wt)): 0.01

## H1L1 Fab heterodimer of LCCA Set # 9068 (D3H44 Fab; H1 F174G, L1 S131T_S176F_T178F)
[16]
  Change in median values of KD of h1l1 Fab heterodimer compared to wild type (-(log(KD design)-log(KD wt))): 0.07
[17]
  Kd: 130 pM

## H1L1 Fab heterodimer of LCCA Set # 9070 (D3H44 Fab; H1 F174G, L1 S131T_S176F_T178Y)
[16]
  Change in median values of KD of h1l1 Fab heterodimer compared to wild type (-(log(KD design)-log(KD wt))): 0
[17]
  Kd: 160 pM

## D3H44 Fab heterodimer, H1 Q39R_S186R / L1 Q38E_Q124E_Q160E_T180E (H1L1 Fab of LCCA Set # 9828)
[14]
  Kd: 140 pM
[15]
  Change in median values of KD of h1|1 Fab heterodimer compared to wild type (-(log(KD design)-log(KD wt))): 0.07
